In the DeepSol protein solubility set:

assay: soluble on expression in E. coli; label from the status in PepcDB or PDB records

Sequence | soluble on expression in E. coli
DPTAQSLQDISDEQVLVLFEQMLVDMNLNEEKQQPLREKDIVIKREMVSQYLHTSKAGMNQKESSRSAMMYIQELRSGLRDMHLLSCLESLRVSLTSHPVSWVQTFGAEGLASLLDILKRLHDEKEETSGNYDSRNQHEIIRCLKAFMNNKFGIKTMLETEEGILLLVRAMDPAVPNMMIDAAKLLSALCILPQPEDMNERVLEAMTERAEMDEVERFQPLLDGLKSGTSIALKVGCLQLINALITPAEELDFRVHIRSELMRLGLHQVLQELREIENEDMKVQLCVFDEQGDEDFFDLKGRLDDIRMEMDDFGEVFQIILNTVKDSKAEPHFLSILQHLLLVRNDYEARPQYYKLIEECVSQIVLHKNGTDPDFKCRHLQID | soluble
MKTHQYELIDEKVFEHEFDNGLKLFIIPKPGFQKTYVTYTTQFGSLDNHFKPIGSQQFVKVPDGVAHFLEHKLFEKEDEDLFTAFAEENAQANAFTSFDRTSYLFSATSNIESNIKRLLNMVETPYFTEETVNKEKGIIAEEIKMYQEQPGYKLMFNTLRAMYSKHPIRVDIAGSVESIYEITKDDLYLCYETFYHPSNMVLFVVGDVSPQSIIKLVEKHENQRNKTYQPRIERAQIDEPREINQRFVSEKMKLQSPRLMLGFKNEPLDESATKFVQRDLEMTFFYELVFGEETEFYQQLLNKDLIDETFGYQFVLEPSYSFSIITSATQQPDLFKQLIMDELRKYKGNLKDQEAFDLLKKQFIGEFISSLNSPEYIANQYAKLYFEGVSVFDMLDIVENITLESVNETSELFLNFDQLVDSRLEMENR | soluble
MNTTPFPALSAETLLAVNTVGQWLAQNDFSGEQPYSSDCVVLAGNAVIPTIDAACRIAKAQGVPLLISGGIGHSTPFLYAVIARHPRYHTIRTSGRAEAAILADIANQFWHIPAEKIWLEDRSTNCGENARFSCALIRQAKENINTAIVVQDPTMQRRTIAAFRRVTNDDTDAPRWLSFPGFVPVLRHLNDGTRFANVEEGIWTVERYLSLIAGELPRLRDDETGYGPRGKDFIIHVDIPRDIENAWQVLQADTTLRSALGQRALRLEHHHHHH | soluble
VTKIVSHRGANRFAPENTFAAADLALQQGADYIELDVRESADGVLYVIHDETLDRTTNGTGPVGHMLSSEIDTLDAGGWFDDRFKGAIVPRLDAYLEHLRGRAGVYIELKYCDPAKVAALVRHLGMVRDTFYFSFSEEMRQGLQSIAPEFRRMMTLDIAKSPSLVGAVHHASIIEITPAQMRRPGIIEASRKAGLEIMVYYGGDDMAVHREIATSDVDYINLDRPDLFAAVRSGMAELLLASNSSSTC | soluble
MAEGKAGGAAGLFAKQVQKKFSRAQEKVLQKLGKAVETKDERFEQSANNFYQQQAEGHKLYKDLKNFLSAVKVMHESSKRVSETLQEIYSSEWDGHEELKAIVWNNDLLWEDYEEKLADQAVRTMEIYVAQFSEIKERIAKRGRKLVDYDSARHHLEAVQNAKKKDEAKTAKAEEEFNKAQTVFEDLNQELLEELPILYNSRIGCYVTIFQNISNLRDVFYREMSKLNHNLYEVMSKLEKQHSNKVFVVKGLSSSSRRSLVISPPVRTATVSSPLTSPTSPSTLSLKSESESVSATEDLAPDAAQGEDNSEIKELLEEEEIEKEGSEASSSEEDEPLPACNGPAQAQPSPTTERAKSQEEVLPSSTTPSPGGALSPSGQPSSSATEVVLRTRTASEGSEQPKKRASIQRTSAPPSRPPPPRATASPRPSSGNIPSSPTASGGGSPTSPRASLGTGTASPRTSLEVSPNPEPPEKPVRTPEAKENENIHNQNPEELCTSPTLMTSQVASEPGEAKKMEDKEKDNKLISADSSEGQDQLQVSMVPENNNLTAPEPQEEVSTSENPQL | soluble
MSAKAISEQTGKELLYKFICTTSAIQNRFKYARVTPDTDWARLLQDHPWLLSQNLVVKPDQLIKRRGKLGLVGVNLTLDGVKSWLKPRLGQEATVGKATGFLKNFLIEPFVPHSQAEEFYVCIYATREGDYVLFHHEGGVDVGDVDAKAQKLLVGVDEKLNPEDIKKHLLVHAPEDKKEILASFISGLFNFYEDLYFTYLEINPLVVTKDGVYVLDLAAKVDATADYICKVKWGDIEFPPPFGREAYPEEAYIADLDAKSGASLKLTLLNPKGRIWTMVAGGGASVVYSDTICDLGGVNELANYGEYSGAPSEQQTYDYAKTILSLMTREKHPDGKILIIGGSIANFTNVAATFKGIVRAIRDYQGPLKEHEVTIFVRRGGPNYQEGLRVMGEVGKTTGIPIHVFGTETHMTAIVGMALGHRPIP | soluble
MLYEKFEYNINNLIGNFGLSKIAIAVSGGSDSISLLYLANIWARKNNIELFVISVDHNLRPQSKQENYYIHTISSNLNRKYYNLSFDHQNNFSNLQERAREGRYDLMTNLCLELDVLVLLTAHHEDDYVENFCLRLERNSGIFGLSSSNIHWYNNIQIIRPLYNIPKSELVEYLVNHKIKWFEDESNLSDKYRRNIIRQKLFKEENYIKAEISLQQLKTNKLIEDELKPALISAIAEAVKIFEYGFTFLDLVKFDKFLNEVKAQIINFLLIMISGQSRSARFYSIAHILKLISQDINFKNTVHGCVIKRIQNELLIYREFGKKLPKSKILLDKSVIWDNRFCITKNQKTPDCVITYLSLADYKAIKKQLDLKHLKNLSCKNHNAILFTLPIIKILEKVIAIPHISYYDNDVWNFEVSFAPNFVSRFTHFC | not soluble
MNNLYPYGAPDSNLYARKQEEYDQQIAEAILAGIKREATAIELYRRLADEAPSEQHQHDIRQALENKQASLTQFTNAYRILTGQQPQLEVDDVSFYRFHEGLQKAYEIEVEGYEEYERSSALTENPHVQHAFWTALNTEYENTTRLYRSLHEEADHRVTDHGPRPFVVNIEDETKRNRAFRRALWTGDHLQVTLMSIQVGEDIGLEIHPHLDQFLRVEEGRGLVQMGHRQDNLHFQEEVFDDYAILIPAGTWHNVRNTGNRPLKLYSIYAPPQHPHGTVHETKAIAMAAEEHHHL | soluble
MADILLLDNVDSFTYNLVDQLRASGHQVVIYRNQIGAEVIIERLQHMEQPVLMLSPGPGTPSEAGCMPELLQRLRGQLPIIGICLGHQAIVEAYGGQVGQAGEILHGKASAIAHDGEGMFAGMANPLPVARYHSLVGSNIPADLTVNARFGEMVMAVRDDRRRVCGFQFHPESILTTHGARLLEQTLAWALAK | soluble
MIPKQLSEAEAAVVLNLTVSQVRRLRHKGKLGYTPGRPPRIGEDDIEAYLRAVKRRPTLPPPTEPPTPVIEKDSYADIQRRVREKRLKLRLRSSQRSLG | not soluble
MGSDKIHHHHHHMKNVIKFYEKGSIEILYGKSSHSFPLHSHECFCVGAITKGSALFTINNTKCLLEESMVFIIPPNTGISITANSQYDYITICFKNELKKQVEHILFNKFFLKIKSNDEIFNLCDIFKENNNEKQLLNSILILINSTIATNSLVMETSTNNTVLLICEYIKQTAAKNFSLDTLAESFYLSKYHLIRMFKKEMGVTPYQYYIQAKMGIIRRQIFNGKSETDLAINLNLSDSSHLCKIFKRQMGISIQAYKKNLIRK | not soluble
MAHHHHHHMLVKENHSVILYADEENVELVKLTSDGVLTNRKGTFLHKNIIGKKYGSKIYDSACRNYIYVLRRTPEFVAISLKKKTQTLYEHDISFICLLCNALPNKKIIEAGTGTGCLTYALASCVLPKGVIHTFEYNEERYEEVRNEFSNFENVKNNIKFHHKDVISDSFVEFQPGEIDSVFLDMPNPWLCVPHVKKVLKERGVFVIFLPCIEQVYKIIEALEENQFCEIVTYELVNKSWEIIRNGGPAGGCKRARQFSLGGAKETSDPLEGVKETGDPLEGVKETGGPLEGVKETGDPLEGVKETGDPLERAKQSNDPLERAKQSSDPSNEQKNCPTPAQSQNPTYRLRQKENKTHTGYLIFSKKELSDEHEQIEIELKGV | not soluble
MGSDKIHHHHHHMLSRTADHLFWMARYTERAENTARMLDVNYQTSLLPQSAEVAEQGWWAMLDISELTNAFDHKYGLLTRDDVIDFMVRDMTNPSSIMSCLRAARENARAVRGSLTTEVWETVNTTWLDVQRMIADGELQEDPSRFFEWVKFRSHLARGVQFGTMLKDDAFHFMRLGTFLERADNTARILDVKFQASGSDDSDPNREQNDFYHWAAVLRSVSGFEVYRKVYRAVITPQRVAELLILRPDMPRSLVSSMDEVVAILAMVCNHQSGETERQAGKLHADLKFARIDDIFAVGLHAFLTSFLERIGDIGNGISRDFLVPLQAA | not soluble
IGQVNLSARGNFTFARNEIIEYDQVPQVYPWLEKRGTRLNSNKLYIAEGLYTYDDFIINGEGLNRTYELKPGVVSGLSSGVRPGDIKYKDLNGDGKIDSNDQKEDVGNPTVPEVVYGFGFNAEWKGFYAGIFFQGAGNTSTVLGTGADATFFPFQWGVEESAVRSVVADRWTEQNPSQNVMFPRMHSNNFQNNTVASTWWLRDASFLRLKNIELGYNFDKKLLKKLNIEALRFYVQGNNLCVWDHIKMWDPEQGNSNGGFPYPLNRTFTFGLDFTF | not soluble
MTYIIREMKQEDIHAVQSVAKIAWHDTYEGIIPREIQDSFLDEAYSDEKMKYRLKNTHLFVAEEEGEVIGFANFSPVRLQNEAELGAIYLLPDQQGKGIGSALLQRGIKALNGIRKLYIHVEAANEKGKRFYEAKGFAELEQFEEDFEGHMMQTVRMVLYV | not soluble
MNTPAQRHFTLEPANAERLADLSGCFNEHLRQIELRLGVEIANRGHTFHITGPEPAVTSTETLLRALYAEATGTTFNNHTIQLRLSEAHMAQIVEQTDTPQDIGIRVKRGTVRGHGANQTKYLHKIATHDINFGIGPAGTGKTFLAVASAVEALNESRVQRLILVRPAVEAGEKLGFLPGDLNQKIDPYLRPLYDALYEMLGVEKVLKLLEKNIIEIAPLAYMRGRTLNNAFVILDEAQNTTIEQMKMFLTRLGFGSTAVVTGDLTQIDIPKHLKSGLDDAIEVLHDIEGISFTFFKSHDVVRHPLVARIVSAYDKHNTHPSTTKPA | not soluble
PVDINAATHTIVRGDTVYNISKRYHISQDDFRAWNGMTDNTLSIGQIVKVKPAGYAAPKAAAVKSRPAVPAAAQPPVQSAPVDINAATHTIVRGDTVYNISKRYHISQDDFRAWNGMTDNMLSIGQIVKVKPAGYAAPKTAAVESRPAVPAAVQTPVKPAAQPPVQSAPQPAAPAAENKAVPAPAPQSPAASPSGTRSVGGIVWQRPTQGKVVADF | not soluble
ARTVVLITGCSSGIGLHLAVRLASDPSQSFKVYATLRDLKTQGRLWEAARALACPPGSLETLQLDVRDSKSVAAARERVTEGRVDVLVCNAGLGLLGPLEALGEDAVASVLDVNVVGTVRMLQAFLPDMKRRGSGRVLVTGSVGGLMGLPFNDVYCASKFALEGLCESLAVLLLPFGVHLSLIECGPVHTAFMEKVLGSPEEVLDRTDIHTFHRFYQYLAHSKQVFREAAQNPEEVAEVFLTALRAPKPTLRYFTTERFLPLLRMRLDDPSGSNYVTAMHREVFGDVPAKAEAGAEAGGGAGPGAEDEAGRSAVGDPELGDPPAAPQ | soluble
SKREHNHRRITVTAAIGNKHRRQLATNLHAIEHHAFEHFIAWVAENHFEPEADCKLGTRLRHAGVPGQQ | soluble
MIVVLKMGADKNEVKKLIEAIGREGVEVNPIDGTELTVLGLVGDTSKIDAKRIEANKVVEKVMHVVEPFKKANRKFHPEPSIINVNGMEIGSKKIAMIAGPCSVETEDQIVSIAKDVKKSGAGFLRGGAFKPRTSPYAFQGLKYDGLDLLKKAKEKTGLPIVTEIMSTQDIDIFEENVDVIQVGARNMQNFDLLKELGKTNKTILLKRGLSATIEEWLMSAEYIMAGGNENVVLCERGIRTFETYTRNTLDLSAILAVKKLSHLPVIVDPSHAAGKSWMVDSLSKAAIAVGADGLIIEVHNDPAHALCDGKQSIKPNEYDELISELKTIASAVGREI | not soluble
